Measured values taken from patent publication US20150225472A1.

Biological target: Light chain of BDD-Factor VIII (FVIII: C light chain) expressed in Pichia pastoris GS115 (Homo sapiens (Human)) (UniProt P00451)
Test: cell-based or functional assay

Chain of Light chain of BDD-Factor VIII (FVIII: C light chain) expressed in Pichia pastoris GS115 (Homo sapiens (Human)) (P00451 other isoform, or with tags, fused parts or gaps limits assumed): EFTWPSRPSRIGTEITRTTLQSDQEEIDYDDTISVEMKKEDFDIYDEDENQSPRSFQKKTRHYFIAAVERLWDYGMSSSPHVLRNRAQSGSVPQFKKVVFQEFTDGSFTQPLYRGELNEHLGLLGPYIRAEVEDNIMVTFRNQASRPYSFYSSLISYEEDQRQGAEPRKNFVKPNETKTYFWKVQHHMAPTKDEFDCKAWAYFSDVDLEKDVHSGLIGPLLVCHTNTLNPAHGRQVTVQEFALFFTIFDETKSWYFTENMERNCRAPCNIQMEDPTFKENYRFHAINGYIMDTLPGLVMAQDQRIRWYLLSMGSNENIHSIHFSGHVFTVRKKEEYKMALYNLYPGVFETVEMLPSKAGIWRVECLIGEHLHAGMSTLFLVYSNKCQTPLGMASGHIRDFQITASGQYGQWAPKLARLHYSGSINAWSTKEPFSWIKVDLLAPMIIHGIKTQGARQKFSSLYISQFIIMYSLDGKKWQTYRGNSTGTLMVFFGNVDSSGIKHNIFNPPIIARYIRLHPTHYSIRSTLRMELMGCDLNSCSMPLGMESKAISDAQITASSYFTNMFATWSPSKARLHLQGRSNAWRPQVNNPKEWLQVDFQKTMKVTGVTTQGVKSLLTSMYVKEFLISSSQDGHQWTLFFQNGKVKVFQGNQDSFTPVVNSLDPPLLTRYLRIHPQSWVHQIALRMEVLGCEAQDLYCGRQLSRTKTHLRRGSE

Specific Activity[IU/mg], chromogenic assay: 7660 IU/mg
Specific Activity[IU/mg], one stage clotting assay: 132 IU/mg
Substance: Heavy chain of BDD-Factor VIII (FVIII: C heavy chain, A1 and A2 domains) expressed in Pichia pastoris GS115 (from UniProt P00451 20-759)
